This is an account of results in the supplement of paper PMC9732359.

± gives the uncertainty stated by the source.

The nature of the data set: protein stability index of a GFP-peptide fusion (yeast GPS) (PSI 1-4); higher = more stable; sorted into four equal gates, so the index is relative within each strain. In a few lines:
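Peptides tiling yeast proteins in 17-residue segments were fused downstream of GFP, with Cherry expressed from the same plasmid. As a pooled library in yeast, mid-log cultures grown in leucine-free medium were sorted into four equal gates by GFP/Cherry fluorescence ratio. Gate plasmids were PCR-amplified and Illumina-sequenced, and barcodes linked reads to strains. Each peptide received a protein stability index equal to the sum of each gate's read frequency times its gate number.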

LNSFAFELCSLGDKELW [YJR042W/NUP85]: the protein stability index is, setting by setting: (doa10∆) 1.76 ± 0.22; (pdr5∆) 1.32 ± 0.12; (ubr1∆) 1.34 ± 0.092.

As for LDDQIFVCEKSIEFAKR [RPN6], under “ubr1∆”, the protein stability index turned out to be 1.27 ± 0.16.

As for NYIINDIKKNNKIKLNI [SRB8], the protein stability index by setting is: (doa10∆) 3.16 ± 0.096; (pdr5∆) 3.1 ± 0.16; (san1∆) 3.04 ± 0.2; (ubr1∆) 3.35 ± 0.2.

Turning to EYKLATYGVPGSENKRG [NUT1], the protein stability index came out at 3.36 ± 0.086 (doa10∆), 3.25 ± 0.093 (pdr5∆), 3.33 ± 0.046 (san1∆) and 2.96 ± 0.065 (ubr1∆).

As for TSLKCLVNRKPIPFEFQ [SNF2], the protein stability index reads like this: (doa10∆) 2.56 ± 0.054; (pdr5∆) 2.21 ± 0.043; (san1∆) 2.13 ± 0.053; (ubr1∆) 2.19 ± 0.03.

The sequence VIKRLEASTVPWGDYLQ [BRR2] registered a protein stability index (doa10∆) of 1.63 ± 0.15, a protein stability index (pdr5∆) of 1.24 ± 0.11, a protein stability index (san1∆) of 1.54 ± 0.11 and a protein stability index (ubr1∆) of 1.35 ± 0.11.

YSKAAEPHAVSLAWSAD [ASC1] returned a protein stability index (doa10∆) of 2.81 ± 0.19, a protein stability index (pdr5∆) of 2.87 ± 0.084, a protein stability index (san1∆) of 2.8 ± 0.065 and a protein stability index (ubr1∆) of 2.72 ± 0.078.

Consider TKVLNMKPSEILSLIEE [SMC2], for which the protein stability index is, setting by setting: (doa10∆) 2.86 ± 0.23; (pdr5∆) 3.3 ± 0.17; (san1∆) 3 ± 0.24; (ubr1∆) 2.9 ± 0.11.

VLHVSAKGKSGVQTAYI [RRP40] came in with a protein stability index (doa10∆) of 2.48 ± 0.23 and a protein stability index (ubr1∆) of 2.91 ± 0.24.

In turn, SKLKKETASFIPTKESL [YIL149C/MLP2] gave a protein stability index (doa10∆) of 2.74 ± 0.072, a protein stability index (pdr5∆) of 3.15 ± 0.098, a protein stability index (san1∆) of 2.44 ± 0.15 and a protein stability index (ubr1∆) of 2.57 ± 0.057.

With DDLKQKKEELVEIAYHK [RPO31], the protein stability index is 3.18 ± 0.16 (doa10∆), 3.13 ± 0.072 (pdr5∆), 3.08 ± 0.14 (san1∆) and 3.08 ± 0.082 (ubr1∆).

KYRQTKLSKEERAARVA [RPL5] returned a protein stability index (doa10∆) of 2.7 ± 0.11, a protein stability index (pdr5∆) of 3.05 ± 0.071, a protein stability index (san1∆) of 2.97 ± 0.13 and a protein stability index (ubr1∆) of 2.65 ± 0.07.

Regarding TPRGNHWMGSSVSGSPR [YMR129W/POM152], the protein stability index was determined as 3.25 ± 0.077 (doa10∆), 3.39 ± 0.077 (pdr5∆), 3.01 ± 0.053 (san1∆) and 3.13 ± 0.064 (ubr1∆).

Regarding MSLKKCQEEVSTIEKDM [SMC2], the protein stability index is, setting by setting: (doa10∆) 2.48 ± 0.1; (pdr5∆) 2.73 ± 0.12; (san1∆) 2.75 ± 0.14; (ubr1∆) 2.79 ± 0.2.

NNVNEYSYTTIVLSDQT [YJL039C/NUP192]: the protein stability index is, setting by setting: (doa10∆) 3.11 ± 0.059; (pdr5∆) 3.14 ± 0.066; (san1∆) 3.09 ± 0.045; (ubr1∆) 2.93 ± 0.044.

KVEYKIVHDDPASDDIL [ITC1]: the protein stability index runs as follows: (doa10∆) 3.05 ± 0.087; (pdr5∆) 3.09 ± 0.086; (san1∆) 3.05 ± 0.17; (ubr1∆) 3.21 ± 0.091.

For the sequence MLVDLNVPWPQNSYADK [RPP1], the protein stability index runs as follows: (doa10∆) 1.59 ± 0.27; (pdr5∆) 1.08 ± 0.14; (ubr1∆) 1.12 ± 0.15.

In the case of AQKCGWTIPHKKWNDLK [SIR2], the protein stability index by setting is: (doa10∆) 3.25 ± 0.057; (pdr5∆) 3.26 ± 0.086; (san1∆) 3.26 ± 0.058; (ubr1∆) 2.94 ± 0.038.

With YNEFLYSKAGREELERV [QCR8], the protein stability index runs as follows: (doa10∆) 2.86 ± 0.11; (pdr5∆) 2.73 ± 0.19; (san1∆) 3.35 ± 0.1; (ubr1∆) 2.98 ± 0.1.

Consider TDVEKSDPAAKKTATEP [SRP21], for which the protein stability index was found to be 3.2 ± 0.11 (doa10∆), 3.02 ± 0.085 (pdr5∆), 3.32 ± 0.046 (san1∆) and 3.18 ± 0.096 (ubr1∆).

For IILGTNLYDGAEHKYMP [BRR2], the protein stability index amounted to 3.06 ± 0.12 (doa10∆), 3.47 ± 0.096 (pdr5∆), 3.6 ± 0.087 (san1∆) and 3.27 ± 0.1 (ubr1∆).

HVVTREKGPQVCAKLFG [RPO21]: the protein stability index was determined as 3.24 ± 0.082 (doa10∆), 2.81 ± 0.079 (pdr5∆), 2.95 ± 0.097 (san1∆) and 3.08 ± 0.1 (ubr1∆).

As to YTVNVVDVFAMPQSGTG [RPN11], the protein stability index runs as follows: (doa10∆) 3.08 ± 0.088; (pdr5∆) 3.28 ± 0.1; (san1∆) 3.3 ± 0.063; (ubr1∆) 3.07 ± 0.077.

Sequence ITPSAMKLVPSIPPATI [RPB5] gave a protein stability index (doa10∆) of 2.32 ± 0.054, a protein stability index (pdr5∆) of 2.56 ± 0.069, a protein stability index (san1∆) of 2.35 ± 0.057 and a protein stability index (ubr1∆) of 2.5 ± 0.054.

As for VVSCSQHGFEVQVGPMK [RPB7], the protein stability index is 3.09 ± 0.12 (doa10∆), 3.15 ± 0.098 (pdr5∆), 3.02 ± 0.089 (san1∆) and 3.23 ± 0.12 (ubr1∆).

For the sequence IFSQTTNSTYNPASATD [YJL039C/NUP192], the protein stability index reads like this: (doa10∆) 2.83 ± 0.054; (pdr5∆) 2.69 ± 0.071; (san1∆) 2.46 ± 0.054; (ubr1∆) 2.63 ± 0.046.

The sequence QEPFLNSSNYAELFNND [PRP8] showed a protein stability index (doa10∆) of 2.61 ± 0.051, a protein stability index (pdr5∆) of 2.86 ± 0.046, a protein stability index (san1∆) of 2.55 ± 0.071 and a protein stability index (ubr1∆) of 2.82 ± 0.048.
